In patent US20140193915, “COMPOSITIONS AND METHODS FOR CUSTOM SITE-SPECIFIC DNA RECOMBINASES” (Monsanto Technology, LLC, published 2014):

How the values were obtained:
Experiment in all cases: cell_activity; E. coli
sN-TALER IV-12 = target: T1, sN-TALER IV-12 (synthetic)
T1 chain: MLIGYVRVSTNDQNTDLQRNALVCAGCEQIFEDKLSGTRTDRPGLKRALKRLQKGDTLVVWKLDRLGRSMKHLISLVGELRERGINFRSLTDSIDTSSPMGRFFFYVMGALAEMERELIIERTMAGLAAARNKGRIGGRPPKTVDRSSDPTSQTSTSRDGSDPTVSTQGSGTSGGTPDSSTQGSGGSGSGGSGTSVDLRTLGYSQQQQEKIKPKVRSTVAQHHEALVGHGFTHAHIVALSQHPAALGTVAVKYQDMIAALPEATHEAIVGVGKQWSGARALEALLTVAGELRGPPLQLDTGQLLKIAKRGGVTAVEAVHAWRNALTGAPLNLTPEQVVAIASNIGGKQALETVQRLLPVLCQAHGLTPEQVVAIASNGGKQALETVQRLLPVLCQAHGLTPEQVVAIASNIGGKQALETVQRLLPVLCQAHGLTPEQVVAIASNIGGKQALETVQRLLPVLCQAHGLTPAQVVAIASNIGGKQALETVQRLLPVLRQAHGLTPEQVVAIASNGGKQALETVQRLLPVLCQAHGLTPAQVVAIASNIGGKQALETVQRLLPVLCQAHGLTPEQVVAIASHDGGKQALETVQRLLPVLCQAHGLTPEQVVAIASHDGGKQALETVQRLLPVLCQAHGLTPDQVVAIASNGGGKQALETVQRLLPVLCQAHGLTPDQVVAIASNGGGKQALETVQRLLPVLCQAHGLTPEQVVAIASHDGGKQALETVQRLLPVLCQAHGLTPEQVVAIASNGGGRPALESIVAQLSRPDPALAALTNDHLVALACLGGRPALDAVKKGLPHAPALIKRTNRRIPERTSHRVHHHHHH
Procedure: (§1) To test for recombination, E. coli DH5alpha cells were co-transformed with different combinations of TALER expression construct and TALER reporter construct pairs (Tables 6 and 7). The N-TALER expression and reporter constructs were in an approximate 1:1 mass ratio during the transformation. The co-transformed bacteria were plated on media with chloramphenicol, kanamycin, and X-gal then incubated at 37° C. for 18 to 36 hours. Control samples consisted of transformations using the reporter construct alone. Control transformants were similarly plated. The bacterial transformation protocol was either heat shock or electroporation per standard molecular biology techniques.
(§2) The N-TALER expression constructs representing the N-TALER chimeras with varying linker lengths were co-transformed with N-TALER reporter constructs with TALER central sequence lengths of 18, 20, 24, 30, 40, and 50 bp (Table 13). […] Recombination did occur, but was less efficient with the pN-TALER IV-14 (linker length of 71 amino acids) with each of the N-TALER reporters tested.

pN-TALER IV-12 = target: T2, pN-TALER IV-12 (synthetic)
T2 chain: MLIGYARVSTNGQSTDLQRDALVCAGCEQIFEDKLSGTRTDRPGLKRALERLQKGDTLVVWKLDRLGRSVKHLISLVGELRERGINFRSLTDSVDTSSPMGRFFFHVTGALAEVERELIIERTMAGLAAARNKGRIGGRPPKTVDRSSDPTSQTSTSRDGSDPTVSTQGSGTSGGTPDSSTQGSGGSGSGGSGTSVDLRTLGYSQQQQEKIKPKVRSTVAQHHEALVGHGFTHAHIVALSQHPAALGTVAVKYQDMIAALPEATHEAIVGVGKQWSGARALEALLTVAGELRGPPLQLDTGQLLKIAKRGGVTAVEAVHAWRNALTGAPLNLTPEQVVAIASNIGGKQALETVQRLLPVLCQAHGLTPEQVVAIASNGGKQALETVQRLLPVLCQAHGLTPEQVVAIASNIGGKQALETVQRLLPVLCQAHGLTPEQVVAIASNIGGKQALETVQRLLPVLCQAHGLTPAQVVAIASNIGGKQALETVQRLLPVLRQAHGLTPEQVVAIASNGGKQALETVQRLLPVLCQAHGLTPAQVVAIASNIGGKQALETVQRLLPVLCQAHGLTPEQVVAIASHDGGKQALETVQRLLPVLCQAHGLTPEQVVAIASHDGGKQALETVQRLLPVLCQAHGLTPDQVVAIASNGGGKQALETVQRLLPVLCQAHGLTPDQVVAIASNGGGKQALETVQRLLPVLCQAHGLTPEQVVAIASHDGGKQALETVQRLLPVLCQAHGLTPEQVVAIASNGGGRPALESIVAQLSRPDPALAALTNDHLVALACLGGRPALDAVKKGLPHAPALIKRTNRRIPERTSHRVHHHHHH
Procedure: as §1, §2

pN-TALER IV-5-EE2 = target: T3, pN-TALER IV-5-EE2 (synthetic); settings: tags: 6-His
T3 chain: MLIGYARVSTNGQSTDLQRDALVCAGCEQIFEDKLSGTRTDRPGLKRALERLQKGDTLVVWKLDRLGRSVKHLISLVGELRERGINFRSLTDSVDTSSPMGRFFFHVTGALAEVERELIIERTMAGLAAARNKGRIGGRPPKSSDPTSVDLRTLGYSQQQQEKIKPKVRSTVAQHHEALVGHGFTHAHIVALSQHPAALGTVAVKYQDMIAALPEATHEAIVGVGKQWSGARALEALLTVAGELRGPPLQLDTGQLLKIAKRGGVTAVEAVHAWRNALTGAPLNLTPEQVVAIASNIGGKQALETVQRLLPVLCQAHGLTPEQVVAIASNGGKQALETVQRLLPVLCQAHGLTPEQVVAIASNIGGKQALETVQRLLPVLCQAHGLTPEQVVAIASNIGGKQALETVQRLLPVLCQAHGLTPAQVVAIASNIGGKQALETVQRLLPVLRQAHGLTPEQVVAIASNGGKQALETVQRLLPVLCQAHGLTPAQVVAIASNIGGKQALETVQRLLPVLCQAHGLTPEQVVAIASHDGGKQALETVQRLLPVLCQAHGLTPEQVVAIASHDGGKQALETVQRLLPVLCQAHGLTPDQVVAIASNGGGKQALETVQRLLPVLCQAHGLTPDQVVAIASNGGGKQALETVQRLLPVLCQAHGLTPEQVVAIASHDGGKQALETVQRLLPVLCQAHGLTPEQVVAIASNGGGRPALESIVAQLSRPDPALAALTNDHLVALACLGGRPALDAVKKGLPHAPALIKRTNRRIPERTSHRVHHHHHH

Measured: activity

B1: Gin20TALE+0 (dsDNA)
DNA 1: AGAAGGTATTTATATCCAAAACCATGGTTTACAGTATAAATACCTTCT
DNA 2: AGAAGGTATTTATACTGTAAACCATGGTTTTGGATATAAATACCTTCT
1 score: all assays above
